This assay addresses HLA-A*02:01 (Homo sapiens, UniProt P04439, D140Y/D185E/D98H/E176V/E277Q/G131W/G231S/I119V/I121R/I166T/I218V/L300P/L318F/N151K/N90K/P208A/P217A/Q86G/Q94H/R138H/R169H/T345S). Description: MHC binding assay (UV-ligand exchange, beta2m ELISA, peptide exchange yield). Conditions: binding of HLA-class I restricted peptides to HLA-A*02:01, ranged by peptide exchange yield (UV-ligand exchange, β2m ELISA). In a few lines:
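Peptide–HLA-A*02:01 complexes made by UV-mediated exchange of a photocleavable peptide with the test peptide. Exchange products diluted 100-fold on streptavidin-coated plates, 1 h at 37°C, then HRP anti-β2m 1 h at 37°C; TMB read at 450 nm to give exchange yield.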
A general note: An ELISA detects its analyte on a solid surface through an enzyme-linked reagent.

Consider “272 (ALGNTVPAV; listed as Homo sapiens) [compound 272]”, for which the Peptide exchange entry was “″+++″ (≥50% = +++)”. The entry for “226 (MLYVVPIYL; listed as Homo sapiens) [compound 226]” is “″++″ (≥20% = ++)”; for “274 (SLLFSLFEA; listed as Homo sapiens) [compound 274]” it is “″++″ (≥20% = ++)”; for “302 (ALLQEGEVYSA; listed as Homo sapiens) [compound 302]” it is “″+++″ (≥50% = +++)”. The entry for “312 (IISDLTIAL; listed as Homo sapiens) [compound 312]” is “″+++″ (≥50% = +++)”. To “41 (SLMPHIPGL; listed as Homo sapiens) [compound 41]” belongs “″+++″ (≥50% = +++)”; to “300 (ALLGQTFSL; listed as Homo sapiens) [compound 300]”, “″+++″ (≥50% = +++)”; to “51 (LLPDLEFYV; listed as Homo sapiens) [compound 51]”, “″++++″ (≥75% = ++++)”.

On to “389 (LLADVTHLL; listed as Homo sapiens) [compound 389]”, for which the Peptide exchange result is “″++″ (≥20% = ++)”. The entry for “250 (ALSEEGLLVYL; listed as Homo sapiens) [compound 250]” is “″+++″ (≥50% = +++)”; for “271 (LVYPLELYPA; listed as Homo sapiens) [compound 271]” it is “″+++″ (≥50% = +++)”; for “63 (YLLPSGGSVTL; listed as Homo sapiens) [compound 63]” it is “″++″ (≥20% = ++)”. Regarding “194 (ALPLFVITV; listed as Homo sapiens) [compound 194]”, the Peptide exchange entry is on record as “″+++″ (≥50% = +++)”. “210 (LLLNAVLTV; listed as Homo sapiens) [compound 210]”: the Peptide exchange result is reported as “″++″ (≥20% = ++)”. In the case of “602 (YLLEQIKLIEV; listed as Homo sapiens) [compound 602]”, the Peptide exchange result was “″++++″ (≥75% = ++++)”. To “19 (FMVDNEAIYDI; listed as Homo sapiens) [compound 19]” belongs “″++++″ (≥75% = ++++)”; to “606 (ALWETEVYI; listed as Homo sapiens) [compound 606]”, “″+++″ (≥50% = +++)”; to “438 (KLLPLAGLYL; listed as Homo sapiens) [compound 438]”, “″++++″ (≥75% = ++++)”.

Regarding “59 (IMEDIILTL; listed as Homo sapiens) [compound 59]”, the Peptide exchange result was “″+++″ (≥50% = +++)”. With “512 (SLSEIVPCL; listed as Homo sapiens) [compound 512]”, the Peptide exchange entry is listed as “″+++″ (≥50% = +++)”. With “451 (LLLLDTVTMQV; listed as Homo sapiens) [compound 451]”, the Peptide exchange entry is given as “″++″ (≥20% = ++)”. To “254 (TLLAFIMEL; listed as Homo sapiens) [compound 254]” belongs “″+++″ (≥50% = +++)”; to “119 (FLYIGDIVSL; listed as Homo sapiens) [compound 119]”, “″++++″ (≥75% = ++++)”. The entry for “370 (SLLQDLVSV; listed as Homo sapiens) [compound 370]” is “″+++″ (≥50% = +++)”; for “275 (YLVYILNEL; listed as Homo sapiens) [compound 275]” it is “″++″ (≥20% = ++)”; for “197 (ALGPEGGRV; listed as Homo sapiens) [compound 197]” it is “″++″ (≥20% = ++)”. The entry for “635 (SLDSTLHAV; listed as Homo sapiens) [compound 635]” is “″+++″ (≥50% = +++)”. Turning to “542 (RVWDISTVSSV; listed as Homo sapiens) [compound 542]”, the Peptide exchange result is “″+++″ (≥50% = +++)”. The entry for “321 (GLFEDVTQPGILL; listed as Homo sapiens) [compound 321]” is “″++++″ (≥75% = ++++)”. To “500 (SLMEDQVLQL; listed as Homo sapiens) [compound 500]” belongs “″+++″ (≥50% = +++)”; to “527 (FLLEPGNLEV; listed as Homo sapiens) [compound 527]”, “″++++″ (≥75% = ++++)”; to “569 (KLVDRTWTL; listed as Homo sapiens) [compound 569]”, “″+++″ (≥50% = +++)”. The entry for “594 (IMLKGDNITL; listed as Homo sapiens) [compound 594]” is “″+++″ (≥50% = +++)”. Take “71 (GILARIASV; listed as Homo sapiens) [compound 71]”: the Peptide exchange result is “″+++″ (≥50% = +++)”.

For the substance “480 (ALLEDSCHYL; listed as Homo sapiens) [compound 480]”, the Peptide exchange result is “″+++″ (≥50% = +++)”. To “439 (YLLQEIYGI; listed as Homo sapiens) [compound 439]” belongs “″+++″ (≥50% = +++)”; to “433 (AMLNEPWAV; listed as Homo sapiens) [compound 433]”, “″+++″ (≥50% = +++)”. To “270 (LLLDEEGTFSL; listed as Homo sapiens) [compound 270]” belongs “″++″ (≥20% = ++)”. In the case of “218 (SALEELVNV; listed as Homo sapiens) [compound 218]”, the Peptide exchange entry is “″++″ (≥20% = ++)”. With “39 (SVAPNLPAV; listed as Homo sapiens) [compound 39]”, the Peptide exchange result is on record as “″+++″ (≥50% = +++)”. The entry for “269 (RVLEVGALQAV; listed as Homo sapiens) [compound 269]” is “″++″ (≥20% = ++)”; for “136 (YLADPSNLFVV; listed as Homo sapiens) [compound 136]” it is “″+++″ (≥50% = +++)”; for “579 (NLMEMVAQL; listed as Homo sapiens) [compound 579]” it is “″++″ (≥20% = ++)”. The entry for “508 (ILAQEQLVVGV; listed as Homo sapiens) [compound 508]” is “″+++″ (≥50% = +++)”.

Regarding “558 (GLLENIPRV; listed as Homo sapiens) [compound 558]”, the Peptide exchange entry was “″+++″ (≥50% = +++)”.

In the case of “122 (FLLAEDDIYL; listed as Homo sapiens) [compound 122]”, the Peptide exchange entry is given as “″+++″ (≥50% = +++)”. Regarding “467 (FLAKDFNFL; listed as Homo sapiens) [compound 467]”, the Peptide exchange entry was “″+++″ (≥50% = +++)”. As for “530 (VMYADIGGMDI; listed as Homo sapiens) [compound 530]”, the Peptide exchange result is given as “″+++″ (≥50% = +++)”. To “84 (VTFGEKLLGV; listed as Homo sapiens) [compound 84]” belongs “″++″ (≥20% = ++)”; to “6 (VLVSDGVHSV; listed as Homo sapiens) [compound 6]”, “″+++″ (≥50% = +++)”. As to “344 (YLQDQHLLLTV; listed as Homo sapiens) [compound 344]”, the Peptide exchange result is listed as “″+++″ (≥50% = +++)”.

Turning to “400 (SLLTEQDLWTV; listed as Homo sapiens) [compound 400]”, the Peptide exchange result was “″++″ (≥20% = ++)”.

On to “448 (NLLETKLQL; listed as Homo sapiens) [compound 448]”, for which the Peptide exchange result was “″+++″ (≥50% = +++)”. The entry for “81 (FLFSQLQYL; listed as Homo sapiens) [compound 81]” is “″++″ (≥20% = ++)”; for “80 (FLYDNLVESL; listed as Homo sapiens) [compound 80]” it is “″++″ (≥20% = ++)”.

“472 (KLLEVSDDPQV; listed as Homo sapiens) [compound 472]”: the Peptide exchange entry is “″+++″ (≥50% = +++)”. The entry for “402 (VLFSGALLGL; listed as Homo sapiens) [compound 402]” is “″++″ (≥20% = ++)”; for “246 (LLWEVVSQL; listed as Homo sapiens) [compound 246]” it is “″+++″ (≥50% = +++)”; for “557 (KLYDDMIRL; listed as Homo sapiens) [compound 557]” it is “″+++″ (≥50% = +++)”. To “365 (YVIDQGETDVYV; listed as Homo sapiens) [compound 365]” belongs “″+++″ (≥50% = +++)”.

Turning to “86 (NLIGKIENV; listed as Homo sapiens) [compound 86]”, the Peptide exchange entry was “″+++″ (≥50% = +++)”. Take “237 (ALLEASGTLLL; listed as Homo sapiens) [compound 237]”: the Peptide exchange result was “″++++″ (≥75% = ++++)”. In the case of “608 (SLLSVSHAL; listed as Homo sapiens) [compound 608]”, the Peptide exchange result is reported as “″+++″ (≥50% = +++)”.

With “566 (VIADGGIQNV; listed as Homo sapiens) [compound 566]”, the Peptide exchange entry is recorded as “″++″ (≥20% = ++)”.

In the case of “142 (FLFATPVFI; listed as Homo sapiens) [compound 142]”, the Peptide exchange result is listed as “″+++″ (≥50% = +++)”.

Consider “33 (VLLSLLEKV; listed as Homo sapiens) [compound 33]”, for which the Peptide exchange entry is “″++″ (≥20% = ++)”.

On to “539 (ALFDAQAQV; listed as Homo sapiens) [compound 539]”, for which the Peptide exchange entry is recorded as “″+++″ (≥50% = +++)”. To “183 (FGLDLVTEL; listed as Homo sapiens) [compound 183]” belongs “″+++″ (≥50% = +++)”; to “493 (GLLGEKTQDLIGV; listed as Homo sapiens) [compound 493]”, “″+++″ (≥50% = +++)”.

“169 (NLPEYLPFV; listed as Homo sapiens) [compound 169]”: the Peptide exchange entry is given as “″+++″ (≥50% = +++)”.

For the origin of these results see patent US10253076B2, “Peptides and combination of peptides for use in immunotherapy against ovarian cancer and other cancers” (immatics biotechnologies GmbH, priority 2015, dated 2019).
